The source of these data is publication PMC4709657, “Construction of a subunit-fusion nitrile hydratase and discovery of an innovative metal ion transfer pattern” (Scientific Reports, 2016).

One data set concerns the target T1, wild-type NHase (Pseudomonas putida, UniProt P97051+P97052).
T1 construct: gene nthA; tetramer alpha2beta2; EC 4.2.1.84; tag not clearly stated
T1 sequence (P97051 1-210): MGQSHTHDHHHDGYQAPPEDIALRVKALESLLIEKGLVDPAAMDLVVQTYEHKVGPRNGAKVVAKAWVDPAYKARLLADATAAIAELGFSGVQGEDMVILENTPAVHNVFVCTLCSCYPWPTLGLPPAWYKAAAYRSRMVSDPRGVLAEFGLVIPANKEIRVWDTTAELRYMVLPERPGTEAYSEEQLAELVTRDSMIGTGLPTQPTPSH
T1 sequence (P97052 1-217): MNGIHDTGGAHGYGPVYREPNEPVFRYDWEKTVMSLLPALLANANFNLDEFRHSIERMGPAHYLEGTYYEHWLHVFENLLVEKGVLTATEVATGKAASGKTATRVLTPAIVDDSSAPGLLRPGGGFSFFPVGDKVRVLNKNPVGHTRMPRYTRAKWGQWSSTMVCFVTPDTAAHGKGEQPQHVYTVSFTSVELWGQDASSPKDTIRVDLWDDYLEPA
Put plainly: product tolerance: 3-cyanopyridine consumption with / without nicotinamide. The data set is classed as biochemical. The settings on record: 20 mM 3-cyanopyridine, 10 min.

A further data set addresses T2, NHase-(BAP14K) (Pseudomonas putida, UniProt P97051+P97052).
T2 construct: gene nthB; pET28a, E. coli; cobalt-loaded
T2 sequence (P97052 1-217): T1 sequence (P97052 1-217)
T2 sequence (P97051 1-210): T1 sequence (P97051 1-210)
T2 sequence (O69769 1-127 partner): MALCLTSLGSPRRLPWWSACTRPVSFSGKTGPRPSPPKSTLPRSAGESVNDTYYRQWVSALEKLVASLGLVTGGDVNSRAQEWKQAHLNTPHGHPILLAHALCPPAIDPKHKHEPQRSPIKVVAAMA
The data set is described as above. Format: biochemical. The settings on record: 20 mM 3-cyanopyridine, 10 min.

The next data set concerns the target T3, NHase-(BA)P14K (Pseudomonas putida, UniProt P97051+P97052).
T3 construct: gene nthB; pET28a, E. coli
T3 sequence (P97052 1-217): T1 sequence (P97052 1-217)
T3 sequence (P97051 1-210): T1 sequence (P97051 1-210)
Described as above. Format: biochemical. The settings on record: 20 mM 3-cyanopyridine, 10 min.

Substrate in data set [1]: N#Cc1cccnc1
Put plainly: nicotinamide formation, A215. Format: biochemical, Pseudomonas putida. The settings on record: 10 mM KPB, 25 °C, 2 min, 10-200 mM substrate, cobalt enzyme. The text has this: nicotinamide formation, A215 on wild-type NHase

Data set [2] deals with the molecule itself. Nature of the data set: SEC; purified enzymes and marker proteins on a Superdex 200 10/300 GL column, 10 mM KPB; mass from the standard curve of marker proteins, oligomer inferred from the mass. (Size exclusion chromatography separates by hydrodynamic size, large species first.)

Turning to `NC(=O)c1cccnc1` [nicotinamide], the figures for the “reduction ratio (with / without 0.5 M nicotinamide)” value on wild-type NHase, at NHase-(BAP14K) and at NHase-(BA)P14K were 0.80, 0.83 and 0.86, respectively.

B1: wild-type NHase (Pseudomonas putida) (protein)
chain 1: T1 sequence (P97051 1-210)
chain 2: T1 sequence (P97052 1-217)
notes: tetramer alpha2beta2; EC 4.2.1.84; tag not clearly stated
Turning to B1, in data set [1], the Michaelis-Menten constant (Km) came out at 41.2 ± 7.7 mM, the catalytic constant (kcat) is 335 ± 57.6 s⁻¹ and the specificity constant (kcat/Km) amounted to 8100 M⁻¹ s⁻¹.

B2: NHase-(BA)P14K, fusion nitrile hydratase encoded by the gene (BA)P14K (enzyme, Pseudomonas putida NRRL-18668)
chain: MNGIHDTGGAHGYGPVYREPNEPVFRYDWEKTVMSLLPALLANANFNLDEFRHSIERMGPAHYLEGTYYEHWLHVFENLLVEKGVLTATEVATGKAASGKTATRVLTPAIVDDSSAPGLLRPGGGFSFFPVGDKVRVLNKNPVGHTRMPRYTRAKWGQWSSTMVCFVTPDTAAHGKGEQPQHVYTVSFTSVELWGQDASSPKDTIRVDLWDDYLEPAPGMGQSHTHDHHHDGYQAPPEDIALRVKALESLLIEKGLVDPAAMDLVVQTYEHKVGPRNGAKVVAKAWVDPAYKARLLADATAAIAELGFSGVQGEDMVILENTPAVHNVFVCTLCSCYPWPTLGLPPAWYKAAAYRSRMVSDPRGVLAEFGLVIPANKEIRVWDTTAELRYMVLPERPGTEAYSEEQLAELVTRDSMIGTGLPTQPTPSH
notes: β-subunit of the cobalt nitrile hydratase of Pseudomonas putida NRRL-18668 (B gene); MALDI-TOF indicated the full length of βα; linker, dipeptide proline-glycine; α-subunit of the cobalt nitrile hydratase of Pseudomonas putida NRRL-18668 (A gene); Same polypeptide as m1 but made with P14K co-expressed from the same plasmid; cobalt-containing (0.84 per βα); P14K is not part of the purified enzyme; …
As to B2, the “stoichiometry N” value in data set [2] is 2.

The Km is the concentration of substrate that gives half-maximal velocity. By kcat is commonly meant the maximal rate divided by the concentration of active sites. A word on the kcat/Km: it is the second-order rate constant that governs catalysis at low substrate concentration. As a reminder, the stoichiometry N is the number of molecules, sites or subunits per partner or assembly.
